# Results taken from article PMC5024094, “Identification of a novel sesquiterpene biosynthetic machinery involved in astellolide biosynthesis” (Scientific Reports, 2016).
# B1: AstA (Aspergillus oryzae RIB40) (protein)
# chain: MDLEPWGPLYRKQDQDGSLDNIAVVSGDIPSPHPKNEPSQTSTLHIPRDSDLDSDIPSVPTALIIAWGLTLSSLTGDEVVGFDLLPFRGDYQDLGARPYHFLLKFGYREWSREAATTGMDLGSASSEGLPQGMGNRPQIAPSRFRNVLIIKQCSDAPGDSGSLESPSLGNVDKDEPTDAFRADMFISIQCGIGRTGIDVHCSFDPAFWTSENIRMILLDLSRNFKEVMRCGRDDTPLTCLEGMSPKGLDCVLRRNIIPPPPKMEACVHHRFQARCRQNPSALAIDAWDGQLTYAELDSLSSQLASRLVSSITICPRGFMGVLMEKSAWVPVAILAVLKVGSAFVFLDGSQPLQRLKIICAETKSQLVLSSAHYREKANTLGPPVLLVEKNQSGLGQAKENDSCPSLLEDYPQPQSQPQDTLYAVFTSGSTGEPKGAMVDHGAFCTMCGPQMAARPTTNVSPRVFQFAPHAFTVSILDYLGTLLQGGCVCVPSEEELRNNMAGAIEGLSANIVTMTPSMARVLDPTQTPSLQLVLLAGEMMAQCDLDKWSQCVRLLSLYGQSENAAGSMISEKSIVPRAPNTFETLTPGFQCWIVSQDNPHRLMALGEVGELLLEGPALGQGYMNDPIQTEDKFICRSFCLEYAHSGSPQSYRLFKTGDLVRYTPAGEIELLGRKGAEVKLRGQRIDLTEIEHHLRCLFPSATRVVADVIIPSDDIDGLHPVLAAFVQVDSVSRTGQSAEATFASPRPEFRAEAKAVLSGLCQTIPSYMIPMTIIPTEAFPFTATGKLDRRSLRQYASAMSRSDLLKYVTDDRGPVVTAVTPVEIIIHDACVEALGVSSDKVGMLDSFPDLGGDSLAARRMVSICRTKGLELAVADILAHSSLTSLAEKCSAGGGGAKQISQGVEMLDPFSTAKEEFLSHLPSFLPNADMIADVFPVQGAQRRAARAIDTFIFRLSGPVDADRLRDACQVLQQAHLALRSIFVPFYGKFMQVVLRVPPLDFTRRLLPDGTDLVKWAESIGQADKTQRPPSEEFVVRFTLAETAGTPDYSIFMMRLSHAQYDAGCLARIISDLWAVYEQKQLVVKSDFAQYARRAVQQTHLLSMEAFWRDLLAGTTGLTPLPVTGISAEEERTIIVQQRVELKEPPPTGISMATVVRGAWSWVLHQQTGNTVVVFNEMLNGRDVVPLEDTEPVVGACHSIVPVCVHFPLPQSGRTPRELLSALQEQHLASLTFTTLDRDYLIQNCTEWTSHQSGFILAYQNFPEICDLVIGEDLSCQWASQVLDLAEPGEAWVTATPLPGALQISLRVSTAAMDEQEANAWISALGQTIIRFLDSPDSVL
# notes: recombinant, expressed in Escherichia coli BL21, purified; 1338 aa gene product with A, T and C domains; tag details only in supplement
# Columns and labels:
# purified protein [1] = substrate: O=C(O)c1ccccc1; experiment: purified protein; assay type: biochemical, Aspergillus oryzae; details: A-domain, 2.5 mM ATP, 5 mM MgCl2, 50 mM Tris-HCl pH 7.4, 1 mM DTT, 2 μM AstA, Sfp modification of T-domain essential
# purified protein [2] = substrate: O=C(O)c1ccc(O)cc1; experiment: purified protein; details: A-domain, 2.5 mM ATP, 5 mM MgCl2, 50 mM Tris-HCl pH 7.4, 1 mM DTT, 2 μM AstA, Sfp modification of T-domain essential
protein,measurement,setting,value
B1,Km,purified protein [1],4.9 µM
same,kcat,purified protein [1],0.0222 s⁻¹
same,Km,purified protein [2],3.8 µM
same,kcat,purified protein [2],0.0163 s⁻¹
